Measured values published in US20150110776A1 (PROTHENA BIOSCIENCES, published 2015).

T1: rat IAPP (rat, UniProt P12969 38-74)
T1 construct: Used as the soluble analyte in the Biacore assay in place of human IAPP; also called rat islet amyloid polypeptide
T1 peptide (looked up): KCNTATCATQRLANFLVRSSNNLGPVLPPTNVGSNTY

T2: human islet-amyloid polypeptide (IAPP) (human)
T2 construct: also called hIAPP; human IAPP
T2 peptide: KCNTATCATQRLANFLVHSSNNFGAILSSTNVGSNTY

T3: hIAPP peptide LSSTNVGSNTY, amino acids 27-37 of IAPP (human)
T3 peptide: LSSTNVGSNTY


Key:
rat IAPP = molecular target: T1, rat IAPP; test: SPR (Biacore), antibody captured on anti-human CM5 chip, rat IAPP as analyte, global 1:1 fit
Description: The affinity of various combinations of 3H6 humanized heavy chains and humanized light chain proteins for IAPP was analyzed on a Biacore instrument. Biacore analysis was performed by preparing an anti-human CM5 chip following the protocol provided in the kit. The 3H6 antibody was captured such that the maximum binding of rat IAPP would not exceed 20-30 RU. […] Data was blank subtracted to both an irrelevant sensor not containing 3H6 and 0 IAPP concentration to account for the dissociation of 3H6 from the anti-human capture. Data was then analyzed using a global 1:1 fit.

[1] = molecular target: T2, human islet-amyloid polypeptide (IAPP); test: hybridoma screen against hIAPP
Description: (§1) LA28-3H6 was originally a mouse hybridoma, producing an anti-hIAPP antibody of isotype Gamma 2a k, which resulted from a fusion of spleen cells from a mouse injected with hIAPP coupled to KLH via gluteraldehyde. The mouse was immunized with 25 μg of the conjugate in RIBI adjuvant on days 0, 7, 14, 21, 39, 46, 53, 60, 77, 84, and 91. […] On day 97 the mouse was injected with the IAPP/KLH conjugate both intraperitoneally and intravenously. Three days later the spleen was removed and a cell suspension was generated and frozen. Four months later the suspension was thawed and fused to SP2/0 cells. The fusion was screened against hIAPP, then epitope mapped against shorter peptides and found to react with […] (SEQ ID NO: 4), which corresponds to amino acids 27-37 of IAPP.

[2] = molecular target: T3, hIAPP peptide LSSTNVGSNTY, amino acids …; test: hybridoma epitope mapping against shorter peptides
Description: as §1

Binder | Kd (rat IAPP) | koff (rat IAPP) | kon (rat IAPP) | binding result [1] | binding result [2]
murine monoclonal antibody 3H6 (antibody, V domains shown, also called m3H6; mouse 3H6) VH: EVKLEESGGGLVQPGGSMKLSCVASGFTFSNYWMYWVRQSPEKGLEWVAEIRLKSDNYATHYAESVKGRFTISRDDSKSSVYLQMNSLRAEDTGIYYCTIFDYWGQGTTVTVSS VL: not shown | 18.6 nM | 0.00152 s⁻¹ | 81800 M⁻¹ s⁻¹ | binds | binds
humanized 3H6 antibody version H2L1 (antibody, V domains shown, also called h3H6-H2L1) VH: EVQLVESGGGLVQPGGSLKLSCAASGFTFSNYWMYWVRQAPGKGLEWVGEIRLKSDNYATHYAESVKGRFTISRDDSKNTAYLQMDSLKTEDTAVYYCTTFDYWGQGTLVTVSS VL: DVVMTQSPLSLPVTLGQPASISCKSSQSLLDSDGKTYLNWLQQRPGQSPKRLIYLVSKLDSGVPDRFSGSGSGTDFTLKISRVEAEDVGVHYCWQGRHFPYTFGQGTKLEIK | 34.5 nM | 0.00294 s⁻¹ | 85200 M⁻¹ s⁻¹ | – | –
humanized 3H6 antibody version H1L1 (antibody, V domains shown, it was captured on an anti-human chip; also called h3H6-H1L1) VH: EVQLVESGGGLVQPGGSLKLSCAASGFTFSNYWMYWVRQAPGKGLEWVGEIRLKSDNYATHYAESVKGRFTISRDDSKNTVYLQMDSLKTEDTAVYYCTIFDYWGQGTLVTVSS VL: DVVMTQSPLSLPVTLGQPASISCKSSQSLLDSDGKTYLNWLQQRPGQSPKRLIYLVSKLDSGVPDRFSGSGSGTDFTLKISRVEAEDVGVHYCWQGRHFPYTFGQGTKLEIK | 20.4 nM | 0.00231 s⁻¹ | 113000 M⁻¹ s⁻¹ | – | –
humanized 3H6 antibody version H2L2 (antibody, V domains shown, also called h3H6-H2L2) VH: EVQLVESGGGLVQPGGSLKLSCAASGFTFSNYWMYWVRQAPGKGLEWVGEIRLKSDNYATHYAESVKGRFTISRDDSKNTAYLQMDSLKTEDTAVYYCTTFDYWGQGTLVTVSS VL: DVVMTQSPLSLPVTLGQPASISCKSSQSLLDSDGKTYLNWLQQRPGQSPKRLIYLVSKLDSGVPDRFSGSGSGTDFTLKISRVEAEDVGVYYCWQGRHFPYTFGQGTKLEIK | 85.4 nM | 0.00646 s⁻¹ | 75700 M⁻¹ s⁻¹ | – | –
humanized 3H6 antibody version H3L2 (antibody, V domains shown, also called h3H6-H3L2) VH: EVQLVESGGGLVQPGGSLKLSCAASGFTFSNYWMYWVRQAPGKGLEWVGEIRLKSDNYATHYAESVKGRFTISRDDSKNTAYLQMDSLKTEDTAVYYCTIFDYWGQGTLVTVSS VL: DVVMTQSPLSLPVTLGQPASISCKSSQSLLDSDGKTYLNWLQQRPGQSPKRLIYLVSKLDSGVPDRFSGSGSGTDFTLKISRVEAEDVGVYYCWQGRHFPYTFGQGTKLEIK | 33.2 nM | 0.00625 s⁻¹ | 188000 M⁻¹ s⁻¹ | – | –
chimeric 3H6 antibody (antibody, V domains shown, also called ch3H6) VH: EVKLEESGGGLVQPGGSMKLSCVASGFTFSNYWMYWVRQSPEKGLEWVAEIRLKSDNYATHYAESVKGRFTISRDDSKSSVYLQMNSLRAEDTGIYYCTIFDYWGQGTTVTVSS VL: not shown | 13.7 nM | 0.00147 s⁻¹ | 107000 M⁻¹ s⁻¹ | – | –
